Biological target: DosR (DevR) (Mycobacterium tuberculosis H37Rv) (UniProt P9WMF9)
Experiment: EMSA

Chain of DosR (DevR) (Mycobacterium tuberculosis H37Rv) (P9WMF9 whole entry): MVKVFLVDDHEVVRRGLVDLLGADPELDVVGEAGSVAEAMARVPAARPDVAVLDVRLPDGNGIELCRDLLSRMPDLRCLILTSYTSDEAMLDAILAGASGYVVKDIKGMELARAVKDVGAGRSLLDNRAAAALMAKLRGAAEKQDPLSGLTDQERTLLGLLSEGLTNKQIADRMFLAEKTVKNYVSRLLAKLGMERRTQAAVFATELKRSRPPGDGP

“AGCGGGATCGCATCACGCATTGGGTACCTCCGATGCTGGCGGATAAAGCCTTTCGTGCCGGCGGATGATCCGAGGTCGCTAGCTGGCGAGGGCCATGGGCGAGCA (double strand) [rv2625 promoter]” was tested, and the binding was “no binding”.
In the case of “AGCGGTTCGGACTCCACCGCGTCTCCTGAGAGCTTCAGCGTTACATCGGTTGACGAGTTGAAGAATTTATCAGATAGTGCGGATGCGTGCGGGCCGCCCGCGGCCAATCGGCTACGGCGTACGCGAGTCAGC (double strand) [rv0081 promoter]”, the binding is reported as “no binding”.
For “TAAGTGGACACGAACCGTAAGTTTAGACTTACGGATATTCTTCCGCAAGGGTGCGCGGGTGGTGTGACACGTGATCCGGGCATCCCGTCACCCATGGCGTTGGAGCCGAGTATCGGTTGGCGACGTTGGCCCGCCGGAAAGTCGACTGGTACAAGCATTTTCCGAGAACCCATGCGGCGCGTCGCGGCGATGACCGGCAGAGAGGCTCCCTAGTATTGCGGCGTGCTGGATCGCTATGGAACCGA (double strand) [rv1955 promoter]”, the binding was “binds”.
“TGGTATCTGACACTGCTACGTTCCTTTCCGCTTGTTGGTCCACGTCCTTGCACGAGCCAACCGGACCATGGTCCGATTTATTCCGATCGCGTTACAGTGCAAAGGTGAGCGGCGCCGAGC (double strand) [rv3054 promoter]” was tested, and the binding was “binds”.

Source: paper PMC10703047
